Results as given in paper PMC8764538.

Test system: T1, LuxT-6xHis (Vibrio harveyi BB120 (ATCC BAA-1116; reclassified Vibrio campbellii BB120)?), ORF:7f3e8717
T1 sequence: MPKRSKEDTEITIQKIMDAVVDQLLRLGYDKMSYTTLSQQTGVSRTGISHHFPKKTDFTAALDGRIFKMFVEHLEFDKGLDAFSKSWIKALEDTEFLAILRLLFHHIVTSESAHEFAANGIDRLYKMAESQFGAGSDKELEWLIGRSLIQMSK
Test: EMSA
Conditions: EMSA: 20 nM DNA probe, LuxT-6xHis dimer 20-320 nM (1x-16x); buffer, salt, pH and temperature not given (described in cited ref 18)

Sequence | binding
GTTTGATCTGCTTAATAAATCTGGTTAAAAGTTATTAATTAACTTTAAAAAAATAACCCAAGATACTAGTGTTTTTTCAAATTCAAAGGAGAAGCTCTTGATATGGA (double strand) [PluxC control probe] | no binding
AATCATCAGTTCAATAAAAAAGAGGGCTTCAGCCCTCTTTTTTTATATATTTAATCTTGCCCTCATAATCAGTACGCTGTATTATCAATTACAACCGAACTACGTACTGTTTA (double strand) [PswrZ promoter probe] | binds
TGGCATATTTTAAGCTCTTCTCTTTGTAAATCCATCTAACTCACATTTAAATGAGGCCAGAATGAAATCATCCTCAGCATTATGTATTGTATGTCCTTG (double strand) [PluxT promoter probe] | binds
